Data taken from US20150290345A1.

Target: Recombinant Human ErbB2/Fc Chimera (R&D Systems, Inc.) (human) (UniProt P04626)
Experiment: SPR, ProteOn XPR36; ErbB2/Fc amine-coupled on GLM chip (about 3000 RU), 1:1 Langmuir fit

A Kd of 2.3 nM was found for “L1-ICG-HSA (Affibody-immobilized ICG-HSA, SM(PEG)2 linker at 10 times the molar amount of ICG-HSA) (from UniProt P02768 25-609)” in this work.
A Kd of 0.24 nM was found for “L2-ICG-HSA (Affibody-immobilized ICG-HSA, SM(PEG)2 linker at 100 times the molar amount of ICG-HSA) (from UniProt P02768 25-609)” in this work.
